We go through 16 molecules from US20240076398A1 (VISTERRA, published 2024).

No end group written: not given here.

Common to all, as to assay: BLI, peptide on streptavidin sensor
The target in test [1] is T1, biotinylated N-terminal peptide of C5aR1 with tyrosine sulfation (human, tyrosine sulfation (the sulfated tyrosines of C5aR1 are Y11 and Y14); biotinylated).
T1 construct: also called Sulfated N-terminal
T1 peptide: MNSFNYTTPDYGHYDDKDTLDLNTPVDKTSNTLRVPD
The text has this:
(§1) The epitope mapping was undertaken, using biolayer interferometry, on a series of exemplary anti-C5aR1 antibodies generated as described in Example 1. Briefly, for each antibody, biotinylated peptides representing ECL2, the N-terminus with tyrosine sulfation, and the N-terminus without tyrosine sulfation, were immobilized in a streptavidin biosensor. Subsequently, the biosensor was exposed to […] of antibody to detect antibody binding to the immobilized peptide. The results of the epitope mapping study are shown in Table 4 (“+” indicates binding to the listed peptide; “−” indicates lack of binding to the listed peptide).

In test [2] the target is T2, biotinylated N-terminal peptide of C5aR1 without tyrosine sulfation (human, biotinylated).
T2 construct: also called Non-sulfated N-terminal
T2 peptide: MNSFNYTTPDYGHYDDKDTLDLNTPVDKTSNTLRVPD
Text: as §1

Test [3] addresses T3, biotinylated cyclic ECL2 peptide of C5aR1 (human, also: biotinylated, position not given here, cyclic, way of cyclisation not given here).
T3 peptide: RVVREEYFPPKVLC
Text: as §1

B1: Clone_588 (antibody, V domains shown)
VH: DVQLQESGPGLVKPSQSLSLTCTVTGYSITSDYAWNWIRQFPGNKLEWMGYISYSGSIRYNPSLKSRISITRDTSKNQFFLQLNSVTTEDTATYYCAITTGGYFDYWGQGTTLTVSS
VL: DIQMTQSTSSLSASLGDRVTISCRASQDISNYLNWYQQTPDGTVKLLIYQISRLHSGVPSRFSGSGSGTDYSLTISNLEEEDIANYFCQQGNSLPPTFGGGTKVEIK
Regarding B1, the binding result in test [1] and in test [2] was “no binding (tested: 10 gg/mL (so in the source))” in each case.

B2: Clone_336_V2-1 (antibody, V domains shown)
VH: QVQLKQSGPGLVQSSQSLSITCTVSGFSLISYGVHWVRQSPGKGLEWLGVIWSGGSTDYNAAFKSRLSITKDNSKSQVFFKMNSLQADDTAIYYCAKNSQLGNAMDYWGQGTTVTVSS
VL: DIVMSQSPSSLAVSAGEKVTMSCKSSQSLLSSRTRKNYLAWYQQKPGQSPKLLIYWASTRESGVPDRFTGSGSGTDFTLTISSVQAEDLALYFCNQSYDLLTFGAGTKLEIK
On to B2, for which the binding result in test [1] and in test [2] was “no binding (tested: 10 gg/mL (so in the source))” throughout.

B3: Clone_402 (antibody, V domains shown)
VH: QIQLVQSGPELKKPGETVKISCKASGYTFTTFGMSWVKQAPGKGLKWMGWINTNSGMPTYTDDFRGRFAFSLETSASTAYLQISSLKNEDTATYFCARKSLFYWGQGTTLTVSS
VL: DVVMTQSPLTLSVTIGQPASISCRSSRSLLDSDGKTKLHWLLQRPGQSPKSLIYLVSKLDSGVPNRFTGGGSGTDFTLKINRVEAEDLGVYYCWQGTHFPWTFGVGTKLEIK
For B3, in test [3], the binding result is on record as “no binding (tested: 10 gg/mL (so in the source))”.

B4: Clone_511 (antibody, V domains shown)
VH: QVQLQQSGAELAKPGASVKLSCKTSGYTFTNYWMHWIKQRPGLGLEWIGYINPSGDYTKHNQKFKDKATLTADRSSSTAYMQLSSLTYEDSAVYYCARVPLSYGSGNGPYYFDYWGQGTTLTVSS
VL: DVVMTQTPLSLPVSLGDHASISCRSSQSLVHSNGNIYLHWYLQRPGQSPKLLIHKVSNRFSGVPDRFSGSGSGTDFTLKISRVEAEDVGIYFCSQSTLVPLTFGSGTKLELK
B4: the binding result in test [1] and in test [2] was “no binding (tested: 10 gg/mL (so in the source))” throughout.

B5: Clone_518 (antibody, V domains shown)
VH: QVQLQQSGAELAKPGASVKLSCKTSGYTFTNYWMHWIKQRPGLGLEWIGYINPSGDYTKHNQKFKDKATLTADRSSSTAYMQLSSLTYEDSAVYYCARVPLSYGSGNGPYYFDYWGQGTTLTVSS
VL: DVVMTQTPLSLPVSLGDHASISCRSSQSLVHSNGNTYLHWYLQRPGQSPKLLIHKVSNRFSGVPDRFSGSGSGTDFTLKISRVEAEDVGIYFCSQSTLVPLTFGSGTKLELK
For B5, the binding result in test [1] and in test [2] was “no binding (tested: 10 gg/mL (so in the source))” throughout.

B6: antibody 317 (antibody, V domains shown)
VH: QVQLQQPGAELVMPGASVKLSCKASGYTFTSYWLHWVRQRPGQGLEWIGEIDPSDGYSNHNQKFKGKATLTVDKSSSTAYMQLSSLTSEDSAVYYCATEGFWGQGTTVTVSS
VL: DIVMTQSPSSLSVSAGEKVTMSCKSSQSLLKSGNQKNYLAWHQQKPGQPPKLLIYGASTRESGVPDRFTGSGSGTDFTLTISSVQAEDLAVYYCQNDHSHPYTFGGGTKLEIK
Consider B6, for which the binding result in test [1] and in test [2] was “no binding (tested: 10 gg/mL (so in the source))” each time.

B7: Clone_79 (antibody, V domains shown)
VH: QVQLKESGPGLVAPSQSLSITCTVSGFSLTSYAISWVRQPPGKGLEWLGVIWTGGGTKYNSALKSRLSISKDNSKSHVFLKMNSLQSDDTARYYCARDGDYVYYAMAYWGQGTTVTVSS
VL: DVVMTQTPLSLPVSLGDQASISCRSSQSLVHSNGNTYLHWYLQKPGQSPKLLIYKVSNRFSGVPDRFSGSGSGTDFKLKISRVEAEDLGVYFCSQSTHVPPTFGGGTKLEIK
notes: also called antibody 79
As for B7, the binding result in test [1] and in test [2] was “no binding (tested: 10 gg/mL (so in the source))” throughout.

B8: Clone_583 (antibody, V domains shown)
VH: EVQLVESGGGLVKPGGSLKLSCAASGFTFNAYAMSWVRQTPEKRLEWVASISTGGNTYCPDSVKDRFTVSRDNVRNILYLQMSSLRSEDTAMYYCTRGYQRFSGFAYWGQGTLVTVS
VL: DVVMTQTPLSPPVSLGYQASISCRSSQSLVHSNGNTYLNWYLQKPGQSPKLLIYKVSNRLSGVPDRFSGSGSGTDFTLKISRVETEDLGVYFCSQSTHVPYTFGGGTKLEIK
notes: also called Ab583; mAb583
For the molecule B8, the binding result in test [3] is on record as “no binding (tested: 10 gg/mL (so in the source))”.

B9: Clone_584 (antibody, V domains shown)
VH: DVQLQESGPDLVKPSQSLSLTCTVTGYSITSGYSWHWIRQSPGNKLEWLAYIHNSGSTNYNPSLKSRISITRDTSKNQFFLKLNSVTTEDTATYYCARSIGDYWGQGTTLAVSS
VL: DVVMTQTPLSLPVSLGDRASISCRSGQSLVHSNGNTYLHWYLQRPGRSPNLLIYKVSNRFSGVPDRFSGSGSGTDFTLKISRVEAEDLGVYFCSQSTHVPWTFGGGTKLEIK
In the case of B9, the binding result in test [1] and in test [2] was “no binding (tested: 10 gg/mL (so in the source))” throughout.

B10: Clone_429 (antibody, V domains shown)
VH: QVQLQQSGAELAKPGASVKLSCKASGYTFSSYWIHWVKQRPGQGLEWIGYINPRGDYTKYNQKFKDKATLTADKSSSTAFMQLSSLTYEDSAVYYCVRVTGSEGPYYFDYWGQGTTLTVSS
VL: DVVMTQTPLSLPVSLGDQASISCRSSQSLVHSNGNTYLQWYLQKPGQSPKLLIYKVSNRFSGVPDRFSGSGSGTEFTLKIRRVEAEDLGVFLCSQSTLVPLTFGAGTKLELK
On to B10, for which the binding result in test [1] and in test [2] was “no binding (tested: 10 gg/mL (so in the source))” throughout.

B11: Clone_329 (antibody, V domains shown)
VH: QVQLQQSGAELTKPGASVKLSCKASGYTFTNYWMHWVKQRPGQGLEWIGYLNPSSGYTKYNQKFKDKATLTADKSSSTAYMQLNSLTYEDSAVYYCTRSGGDNYGNPYYFDRWGQGTTVTVSS
VL: DVVMTQTPLSLTVSLGDQASISCRSSQSLVHSNGNTYLHWYLQKPGQSPKFLIYKVSNRFSGVPDRFSGSGSGTDFRLKISRVEAEDLGVYFCSQSTLVPLTFGAGTKLEIK
notes: also called Ab329; mAb329
Turning to B11, the binding result in test [1] and in test [2] was “no binding (tested: 10 gg/mL (so in the source))” each time.

B12: Clone_11_V2 (antibody, V domains shown)
VH: QVQLQQSGPELVKPGASVKISCKASGYSFSSSWMNWVKQRPGKGLEWIGRISPGDGDTRYSGKFKGKATLTADKSSSTAYMQVTSLTSEDSAIYFCVRFLITSTRYVMDYWGQGTTVTVSS
VL: DVVMTQTPLSLPVSLGDQASISCRSSQSLVHSNGNTYLHWYLQKPGQSPKLLIYKVSNRFSGVPDRFSGSGSGTDFTLKISRVEAEDLGVYFCSQSTLVPPTFGGGTKLEIK
notes: also called Ab11v2
Take B12: the binding result in test [1] and in test [2] was “no binding (tested: 10 gg/mL (so in the source))” throughout.

B13: Clone_453 (antibody, V domains shown)
VH: QVQLKQSGPGQVAPSQSLSITCTVSGFSLINSAVHWVRQSPGKGLEWLGVIWSDGSTDYNTAFISRLSISRDNSKSQVFFKMRSLQVDDTAVYYCARNGRLGNAMDYWGQGTSVTVSS
VL: DIVMTQSPSSLAVSVGEKVTMSCKSSQSLFSSRTRKNYLAWYQQKPGQSPKLLIYWASTRESGVPYRFTGSGSGTDFTLTISSVQTEDLAVYYCKQSYNLLTFGAGTKLEL
As for B13, the binding result in test [1] and in test [2] was “no binding (tested: 10 gg/mL (so in the source))” throughout.

B14: Clone_184 (antibody, V domains shown)
VH: QVQLQQSGAELVKPGASVKISCKASGYAFSRYWMNWVKQRPGKGLEWIGQIYPGDGDTKYNGKFKGKATLTADKSSSTAYMQLNSLTSEDSAVYFCTRSLGVWGTGTTVTVSS
VL: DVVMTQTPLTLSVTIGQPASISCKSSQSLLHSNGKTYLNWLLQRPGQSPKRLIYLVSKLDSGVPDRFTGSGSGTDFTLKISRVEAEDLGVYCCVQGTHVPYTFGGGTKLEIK
As for B14, the binding result in test [3] is reported as “no binding (tested: 10 gg/mL (so in the source))”.

B15: antibody 343 (antibody, V domains shown)
VH: QVQLQQSGAELVKPGASVKLSCKASGYTFTEYTIHWVNQRSGQGLEWIGWFYPGSGSIKYNEKFKDKATLTADKSSHTVYMELSRLTSEDSAVYFCARHGNYYDGSWFAYWGQGTLVTVSA
VL: DVQITQSPSYLAASPGETITINCRASKSISKYLAWYQEKPGKTNKLLIYSGSTLQSGIPSRFSGSGSGTDFTLTISSLEPEDFAMYYCQQHDEYPWTFGGGTKLEIK
With B15, the binding result in test [1] and in test [2] was “no binding (tested: 10 gg/mL (so in the source))” in each case.

B16: Clone_66 (antibody, V domains shown)
VH: QVQLQQSDAELVKPGASVKISCKASGYTFIDHAIHWVKQRPEQGLEWIGYISPGNGEIKYNEKFKAKATLTADKSSSAAYMQLNSLTSADSAVYFCKRALFYYTGKYQPMDYWGQGTTVTDSS
VL: DIVMTQSQKFMSTTAGDRVSITCKASQNVGSAVVWYQQKPGRSPKLLIYSSSIRYTGVPDRFTGSGSGTDFTLTINSVQSEDLADYFCQQYNSFPLTFGAGTKLEIK
notes: also called Ab66; mab 66
B16: in test [3], the binding result is “no binding (tested: 10 gg/mL (so in the source))”.
